These sequences were tested on Escherichia coli TOP10 (assay: shrunken log2 fold change of peptide-encoding DNA abundance (4.5 h post-induction vs induction); higher = less antimicrobial activity (less host growth inhibition)). Conditions: time post-induction: 4.5 h; library: site-saturation at positions 5, 18, 19, 20.
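Also: peptides expressed intracellularly from a pBAD plasmid library in pooled LB shake-flask culture, induced with 0.3% L-arabinose, DNA abundance read by NGS, three biological replicates, DESeq2 with apeglm shrinkage.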

| Sequence | shrunken log2 fold change |
| --- | --- |
| RRIRSRPPRLPRPRPRPDVGPRP | 0.102 |
| RRIRKRPPRLPRPRPRPNAWPRP | 0.0867 |
| RRIRTRPPRLPRPRPRPPFMPRP | -0.194 |
| RRIRMRPPRLPRPRPRPPEQPRP | 0.956 |
| RRIRSRPPRLPRPRPRPGEFPRP | -0.181 |
| RRIRFRPPRLPRPRPRPNMMPRP | -0.444 |
| RRIRVRPPRLPRPRPRPQEIPRP | -0.0438 |
| RRIRDRPPRLPRPRPRPGKAPRP | 0.00543 |
| RRIRDRPPRLPRPRPRPAFPPRP | -0.0705 |
| RRIRARPPRLPRPRPRPQCDPRP | 0.0205 |
| RRIRFRPPRLPRPRPRPAHSPRP | -0.156 |
| RRIRKRPPRLPRPRPRPPDWPRP | 1.48 |
| RRIRLRPPRLPRPRPRPITDPRP | -0.465 |
| RRIRERPPRLPRPRPRPLEEPRP | 0.239 |
| RRIRERPPRLPRPRPRPAYCPRP | 0.0672 |
| RRIRERPPRLPRPRPRPMDNPRP | -0.626 |
| RRIRVRPPRLPRPRPRPHLCPRP | -0.137 |
| RRIRKRPPRLPRPRPRPIFQPRP | 0.266 |
| RRIRTRPPRLPRPRPRPSIAPRP | -0.281 |
| RRIRARPPRLPRPRPRPCAFPRP | 0.303 |
| RRIRGRPPRLPRPRPRPQNVPRP | 0.266 |
| RRIRFRPPRLPRPRPRPCSHPRP | -0.336 |
| RRIRWRPPRLPRPRPRPCKIPRP | -0.114 |
| RRIRSRPPRLPRPRPRPWPEPRP | 0.519 |
| RRIRYRPPRLPRPRPRPKYSPRP | -0.274 |

| Sequence | shrunken log2 fold change |
| --- | --- |
| RRIRPRPPRLPRPRPRPKFSPRP | -0.125 |
| RRIRIRPPRLPRPRPRPINWPRP | -0.402 |
| RRIRGRPPRLPRPRPRPNNHPRP | -0.15 |
| RRIRARPPRLPRPRPRPWYKPRP | -0.229 |
| RRIRCRPPRLPRPRPRPRKHPRP | 0.0674 |
| RRIRLRPPRLPRPRPRPKQWPRP | 0.176 |
| RRIRERPPRLPRPRPRPMIWPRP | -0.21 |
| RRIRIRPPRLPRPRPRPVNHPRP | -0.288 |
| RRIRPRPPRLPRPRPRPLHCPRP | -0.382 |
| RRIRERPPRLPRPRPRPATAPRP | 0.147 |
| RRIRMRPPRLPRPRPRPHAGPRP | 0.222 |
| RRIRRRPPRLPRPRPRPSMVPRP | -0.298 |
| RRIRVRPPRLPRPRPRPTNLPRP | 0.0684 |
| RRIRPRPPRLPRPRPRPQPNPRP | 0.185 |
| RRIRWRPPRLPRPRPRPNKCPRP | -0.109 |
| RRIRRRPPRLPRPRPRPCWRPRP | 0.00446 |
| RRIRMRPPRLPRPRPRPHQFPRP | -0.0236 |
| RRIRRRPPRLPRPRPRPWFTPRP | 0.0255 |
| RRIRRRPPRLPRPRPRPKDCPRP | 0.132 |
| RRIRKRPPRLPRPRPRPICIPRP | 0.163 |
| RRIRTRPPRLPRPRPRPYDRPRP | -0.221 |
| RRIRNRPPRLPRPRPRPATAPRP | 0.0174 |
| RRIRKRPPRLPRPRPRPCHPPRP | -0.336 |
| RRIRIRPPRLPRPRPRPRFPPRP | 0.0241 |
| RRIRNRPPRLPRPRPRPYKIPRP | -0.0214 |

| Sequence | shrunken log2 fold change |
| --- | --- |
| RRIRTRPPRLPRPRPRPNSDPRP | -0.0311 |
| RRIRWRPPRLPRPRPRPAEPPRP | 0.256 |
| RRIRRRPPRLPRPRPRPEHHPRP | 0.202 |
| RRIRARPPRLPRPRPRPLKMPRP | 0.283 |
| RRIRERPPRLPRPRPRPLQAPRP | 0.167 |
| RRIRDRPPRLPRPRPRPHVYPRP | -0.0179 |
| RRIRARPPRLPRPRPRPRCIPRP | 0.459 |
| RRIRPRPPRLPRPRPRPWFYPRP | -0.543 |
| RRIRMRPPRLPRPRPRPWFEPRP | -0.13 |
| RRIRSRPPRLPRPRPRPIVKPRP | -0.143 |
| RRIRKRPPRLPRPRPRPGVLPRP | 0.293 |
| RRIRVRPPRLPRPRPRPGFMPRP | -0.152 |
| RRIRIRPPRLPRPRPRPSAYPRP | -0.138 |
| RRIRERPPRLPRPRPRPQDTPRP | 2.38 |
| RRIRFRPPRLPRPRPRPRNNPRP | -0.381 |
| RRIRHRPPRLPRPRPRPFKMPRP | -0.274 |
| RRIRPRPPRLPRPRPRPMLIPRP | -0.553 |
| RRIRIRPPRLPRPRPRPELLPRP | -0.0102 |
| RRIRLRPPRLPRPRPRPNLSPRP | -0.548 |
| RRIRDRPPRLPRPRPRPIGTPRP | 0.208 |
| RRIRLRPPRLPRPRPRPSALPRP | -0.0136 |
| RRIRMRPPRLPRPRPRPAMLPRP | 1.22 |
| RRIRDRPPRLPRPRPRPCPEPRP | -0.0682 |
| RRIRWRPPRLPRPRPRPIEGPRP | -0.000175 |
| RRIRWRPPRLPRPRPRPLVAPRP | 0.815 |

| Sequence | shrunken log2 fold change |
| --- | --- |
| RRIRMRPPRLPRPRPRPWGGPRP | 0.414 |
| RRIRLRPPRLPRPRPRPSNMPRP | -0.406 |
| RRIRYRPPRLPRPRPRPMMEPRP | -0.141 |
| RRIRTRPPRLPRPRPRPGIPPRP | -0.394 |
| RRIRDRPPRLPRPRPRPELGPRP | 1.53 |
| RRIRIRPPRLPRPRPRPFTAPRP | -0.138 |
| RRIRERPPRLPRPRPRPYWTPRP | -0.0954 |
| RRIRVRPPRLPRPRPRPDWSPRP | -0.316 |
| RRIRHRPPRLPRPRPRPFELPRP | -0.0176 |
| RRIRQRPPRLPRPRPRPGEQPRP | 0.201 |
| RRIRPRPPRLPRPRPRPINAPRP | -0.292 |
| RRIRKRPPRLPRPRPRPYRRPRP | -0.105 |
| RRIRCRPPRLPRPRPRPHTEPRP | -0.273 |
| RRIRDRPPRLPRPRPRPMIKPRP | -0.222 |
| RRIRQRPPRLPRPRPRPVKIPRP | 0.352 |
| RRIRHRPPRLPRPRPRPNNQPRP | -0.465 |
| RRIRKRPPRLPRPRPRPACLPRP | 0.222 |
| RRIRSRPPRLPRPRPRPFMRPRP | 0.0496 |
| RRIRTRPPRLPRPRPRPTWRPRP | 0.233 |
| RRIRMRPPRLPRPRPRPRFYPRP | 0.322 |
| RRIRHRPPRLPRPRPRPVAPPRP | 0.222 |
| RRIRIRPPRLPRPRPRPGMRPRP | 0.43 |
| RRIRERPPRLPRPRPRPAPHPRP | 0.704 |
| RRIRHRPPRLPRPRPRPETMPRP | 0.054 |
| RRIRMRPPRLPRPRPRPFRWPRP | -0.0454 |

| Sequence | shrunken log2 fold change |
| --- | --- |
| RRIRWRPPRLPRPRPRPIPGPRP | 0.0313 |
| RRIRWRPPRLPRPRPRPWQDPRP | -0.00695 |
| RRIRYRPPRLPRPRPRPGFDPRP | -0.205 |
| RRIRTRPPRLPRPRPRPRCGPRP | 0.172 |
| RRIRARPPRLPRPRPRPGGPPRP | 0.294 |
| RRIRFRPPRLPRPRPRPEDAPRP | 0.00922 |
| RRIRPRPPRLPRPRPRPVARPRP | 0.245 |
| RRIRDRPPRLPRPRPRPMNIPRP | -0.0931 |
| RRIRNRPPRLPRPRPRPGNFPRP | -0.0496 |
| RRIRYRPPRLPRPRPRPKVEPRP | -0.157 |
| RRIRHRPPRLPRPRPRPTLDPRP | 0.0219 |
| RRIRGRPPRLPRPRPRPNMSPRP | 0.161 |
| RRIRTRPPRLPRPRPRPEEPPRP | 0.0165 |
| RRIRNRPPRLPRPRPRPWMLPRP | -0.0937 |
| RRIRWRPPRLPRPRPRPLHAPRP | 0.499 |
| RRIRHRPPRLPRPRPRPCINPRP | -0.306 |
| RRIRYRPPRLPRPRPRPPYCPRP | -0.287 |
| RRIRMRPPRLPRPRPRPLMPPRP | 0.13 |
| RRIRCRPPRLPRPRPRPFTGPRP | -0.0668 |
| RRIRDRPPRLPRPRPRPNIMPRP | -0.367 |
| RRIRWRPPRLPRPRPRPFTHPRP | -0.297 |
| RRIRYRPPRLPRPRPRPWCCPRP | -0.207 |
| RRIRDRPPRLPRPRPRPDVKPRP | -0.00748 |
| RRIRARPPRLPRPRPRPPFNPRP | 0.167 |
| RRIRHRPPRLPRPRPRPIMYPRP | -0.169 |

Reference: the supplement of paper PMC9112550, “Optimization of the antimicrobial peptide Bac7 by deep mutational scanning” (BMC Biology, 2022)
